Experimental data as given in patent publication US20240343803A1 (SHANDONG SIMCERE BIOPHARMACEUTICAL, published 2024).
Residue numbers refer to the chain shown, from its start. Like-named read-outs stand apart in the source and are kept apart here.

How the values were obtained:
[1] = molecular target: T1, Fusion protein of extracellular domain of human TIGIT and His-tag (human TIGIT ECD-his) (human); assay: BIAcore
T1 chain: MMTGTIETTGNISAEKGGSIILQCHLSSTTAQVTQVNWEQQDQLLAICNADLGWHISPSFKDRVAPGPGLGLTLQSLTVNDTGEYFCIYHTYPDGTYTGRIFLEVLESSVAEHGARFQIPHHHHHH

[2] = molecular target: T1, Fusion protein of extracellular domain …; assay: BIAcore
[3] = molecular target: T2, Fusion protein of extracellular domain of human TIGIT and mouse IgG2a Fc fragment (human TIGIT ECD-mFc) (human); assay: ELISA, human TIGIT ECD-mFc
T2 construct: The entry includes the signal peptide (limits not recoverable) and the mouse IgG2a Fc
T2 chain: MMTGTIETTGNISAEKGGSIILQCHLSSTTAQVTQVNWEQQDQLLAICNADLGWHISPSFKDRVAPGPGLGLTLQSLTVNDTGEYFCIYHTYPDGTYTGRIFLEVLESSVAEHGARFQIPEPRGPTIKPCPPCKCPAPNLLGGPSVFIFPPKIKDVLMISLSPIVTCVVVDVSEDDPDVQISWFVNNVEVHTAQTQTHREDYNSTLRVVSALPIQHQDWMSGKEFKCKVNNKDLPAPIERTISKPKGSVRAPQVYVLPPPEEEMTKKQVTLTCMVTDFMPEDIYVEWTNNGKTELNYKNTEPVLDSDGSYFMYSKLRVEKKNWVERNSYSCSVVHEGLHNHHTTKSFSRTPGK

[4] = molecular target: T3, Full-length human TIGIT on CHO-K1 cells (CHO-K1 human TIGIT) (human, UniProt Q495A1 22-244); assay: cell binding, CHO-K1 human TIGIT high expression strain
T3 construct: NCBI XP_024309156.1; the entry includes the signal peptide (limits not recoverable); The strain (high, medium, low) is named under assay; also called high expression strain 1D2; medium expression strain 2D10
T3 sequence: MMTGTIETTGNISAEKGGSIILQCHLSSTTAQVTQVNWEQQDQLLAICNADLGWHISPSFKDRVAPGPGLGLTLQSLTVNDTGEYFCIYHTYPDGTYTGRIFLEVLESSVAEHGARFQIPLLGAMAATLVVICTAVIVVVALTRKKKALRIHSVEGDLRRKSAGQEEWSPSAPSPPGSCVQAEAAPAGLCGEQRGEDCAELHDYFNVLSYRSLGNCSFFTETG
Outline: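 Binding was measured by flow cytometry after a 60-minute, 4° C incubation of the antibodies with 2×10⁵ CHO-K1 cells displaying full-length human or cynomolgus monkey TIGIT. Antibody titration: 12 points, threefold serial dilution from 80 nM, in 1% BSA-PBS.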

[5] = molecular target: T4, human PVRIG-his (AcroBiosystems, Cat NO. PVG-H52H4) (human, UniProt Q6DKI7 41-171, limits assumed); assay: competition ELISA, PVRIG-His coated, competitor human PVRL2-mFc
T4 construct: also called human PVRIG protein
T4 sequence (looked up): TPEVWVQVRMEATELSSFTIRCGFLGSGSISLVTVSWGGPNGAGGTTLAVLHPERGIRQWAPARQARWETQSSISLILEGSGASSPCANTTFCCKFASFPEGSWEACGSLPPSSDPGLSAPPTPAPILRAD
Description: The ELISA plate was pre-coated with 100 μL/well of 0.5 μg/mL human PVRIG-his protein (AcroBiosystems, Cat NO. PVG-H52H4). The tested anti-PVRIG antibodies were diluted from the highest concentration of 16 nM (two-fold concentration). The diluted antibodies were mixed with 18 ng/ml human PVRL2-mFc (AcroBiosystems, Cat NO. CD2-H5257) in equal volume, added into the plate (100 μL/well), and incubated with shaking at room temperature for 2.0 hours. […] A HRP substrate, TMB (Thermo, Cat NO. 34029) was added into wells after washing the plate again for color development. After adding a termination solution to terminate the reaction, the absorbance value was read by a microplate reader (MD i3×). An inhibiting curve was drawn with concentration of antibodies as the abscissa and the corresponding OD value as the ordinate. The IC50 value was calculated by using a Four Parameter Logistic Fit (GraphPadPrism9). The smaller the IC50 value, the stronger the ability of the antibodies inhibits the binding between PVRIG and PVRL2. The positive and negative controls are the same as in Example 8.

B1: TIGIT-002-H4L3 (antibody, V domains shown)
VH: EVQLQESGPGLVKPSETLSLTCAVSGYSITSDSWNWIRQPPGKKLEYIGYISYSGNTYYNPSLKSRVTISRDTSKNQFSLKLSSVTAADTAVYYCARLDFSNYGGAVDYWGQGTTVTVSS
VL: DIVMTQSPDSLAVSLGERATINCKASQNVRTAVAWYQQKPGQSPKLMIYSASYRYTGVPDRFSGSGSGTDFTLTISSLQAEDVAVYYCQQYYTTPWTFGGGTKVEIK
notes: Humanized anti-TIGIT antibody
Kd [1]: 0.0531 nM
koff [1]: 0.0003 s⁻¹
kon [1]: 5.65e+06 M⁻¹ s⁻¹
Kd [2]: 0.0994 nM
koff [2]: 0.000293 s⁻¹
kon [2]: 2.95e+06 M⁻¹ s⁻¹
EC50 [3]: 0.037 nM
EC50 [4]: 0.0249 nM

B2: TIGIT-006-H5L3 (antibody, V domains shown)
VH: B1 VH with I29M, S33Y, N56R, L98G, F100Y, V107M, D108Y, Y109D
VL: DIVMTQSPDSLAVSLGERATINCRASQGVSTTIAWYQQKPGQSPKLLIYSASYRYTGVPRFSGSGSGTDFTLTISSLQAEDVAVYYCQQYYSSPFTFGGGTKVEIK
notes: Humanized anti-TIGIT antibody
Kd [1]: 0.0639 nM
koff [1]: 0.00016 s⁻¹
kon [1]: 2.51e+06 M⁻¹ s⁻¹
Kd [2]: 0.115 nM
koff [2]: 0.000183 s⁻¹
kon [2]: 1.6e+06 M⁻¹ s⁻¹
EC50 [3]: 0.0319 nM
EC50 [4]: 0.022 nM

B3: TIGIT-005-H2L1d (antibody, V domains shown)
VH: EVQLVQSGAEVKKPGASVKVSCKASGYAFTNYLIEWVRQAPGQRLEWMGVINPGSGGTNYKEKFKGRVTITADKSSSTAYMELSSLRSEDTAVYYCARGEYFFFDYWGQGTTVTVSS
VL: B1 VL with N28H, R30S, T31N, Q38H, M47L, Y91H, T93N, W96H
notes: Humanized anti-TIGIT antibody with NG-site mutation in VL
Kd [1]: 0.0896 nM
koff [1]: 0.000361 s⁻¹
kon [1]: 4.03e+06 M⁻¹ s⁻¹
Kd [2]: 0.0852 nM
koff [2]: 0.000257 s⁻¹
kon [2]: 3.02e+06 M⁻¹ s⁻¹
EC50 [3]: 0.0311 nM
EC50 [4]: 0.0439 nM

B4: PVRIG-A118 (Fc fusion)
chain: QVQLVESGGGLVQAGGSLRLSCAASETYFDLYVMGWYRQAPGKDRELVATITYTGSIKIVDSVKDRFTISRGDAKNTVSLQMSSLKPEDTAVYFCNADPSGLGRKVYWGQGTQVTVSS
notes: heavy chain antibody VHH-hinge-CH2-CH3, human IgG1 constant part; not shown: human IgG1 hinge-CH2-CH3
IC50 [5]: 0.0513 nM

B5: PVRIG-A105 (Fc fusion)
chain: EVQLVESGGGLVQAGGSLRLSCAASGRTFDRHTMTWFRQAPGKEREFVATASRIPGDTYYSHSVKGRFTISRDNAKNTVYLQLNNLKPEDTAVYYCAATSAYCSEVDCYEKGSWYDNWGQGIQVTVSS
notes: as for B4
IC50 [5]: 0.0571 nM

B6: PVRIG-A50 (Fc fusion)
chain: EVQLVESGGGLVQPGGSLRLSCAASGFTFSYYDMSWVRQAPGKGLEWVSTINSNGGRTSYVDSVKGRFTISRDNTKNTLYLQMNSLKPEDTAVYYCVEGDPHNFGLENLSLRDFGSWGQGTQVTVSS
notes: heavy chain antibody VHH-hinge-CH2-CH3, human IgG1 constant part; also called PVRIG-50; not shown: human IgG1 hinge-CH2-CH3
IC50 [5]: 0.196 nM

B7: TIGIT-070-H1L1 (antibody, V domains shown)
VH: EVQLVQSGAEVKKPGASVKVSCKASGYTFTNYYMHWVRQAPGQRLEWMGRIDPDSGGSKYNEKFKSRVTITVDKSASTAYMELSSLRSEDTAVYYCAREGHYGFYSDYWGQGTTVTVSS
VL: DIQMTQSPSSLSASVGDRVTITCRVSENIYSYLAWYQQKPGKSPKLLIYNAKTLAEGVPSRFSGSGSGTDFTLTISSLQPEDFATYYCQHHYGNPLTFGPGTKVDIK
notes: Humanized anti-TIGIT antibody
Kd [1]: 0.0583 nM
koff [1]: 0.000116 s⁻¹
kon [1]: 1.98e+06 M⁻¹ s⁻¹
Kd [2]: 0.251 nM
koff [2]: 0.000219 s⁻¹
kon [2]: 875000 M⁻¹ s⁻¹
EC50 [3]: 0.0284 nM
EC50 [4]: 0.026 nM
